Data reported in the supplement of paper PMC9112550, “Optimization of the antimicrobial peptide Bac7 by deep mutational scanning” (BMC Biology, 2022).

These sequences were tested on Escherichia coli TOP10 (assay: shrunken log2 fold change of peptide-encoding DNA abundance (4.5 h post-induction vs induction); higher = less antimicrobial activity (less host growth inhibition)). Settings: time post-induction: 4.5 h; library: site-saturation at positions 5, 18, 19, 20.
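Note: peptides expressed intracellularly from a pBAD plasmid library in pooled LB shake-flask culture, induced with 0.3% L-arabinose, DNA abundance read by NGS, three biological replicates, DESeq2 with apeglm shrinkage.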

Sequence	shrunken log2 fold change
RRIRWRPPRLPRPRPRPPMDPRP	0.0637
RRIRWRPPRLPRPRPRPPPCPRP	0.638
RRIRWRPPRLPRPRPRPPPHPRP	0.721
RRIRWRPPRLPRPRPRPPQFPRP	-0.108
RRIRWRPPRLPRPRPRPPQTPRP	0.169
RRIRWRPPRLPRPRPRPPSDPRP	0.184
RRIRWRPPRLPRPRPRPPSMPRP	0.405
RRIRWRPPRLPRPRPRPPSTPRP	0.402
RRIRWRPPRLPRPRPRPPTAPRP	0.876
RRIRWRPPRLPRPRPRPPTSPRP	0.291
RRIRWRPPRLPRPRPRPPVDPRP	0.494
RRIRWRPPRLPRPRPRPPVLPRP	0.433
RRIRWRPPRLPRPRPRPPVVPRP	0.13
RRIRWRPPRLPRPRPRPQCQPRP	0.129
RRIRWRPPRLPRPRPRPQDAPRP	-0.0395
RRIRWRPPRLPRPRPRPQDRPRP	-0.0199
RRIRWRPPRLPRPRPRPQEFPRP	0.00161
RRIRWRPPRLPRPRPRPQEHPRP	0.0218
RRIRWRPPRLPRPRPRPQGCPRP	0.0267
RRIRWRPPRLPRPRPRPQHHPRP	-0.475
RRIRWRPPRLPRPRPRPQHNPRP	-0.537
RRIRWRPPRLPRPRPRPQHQPRP	-0.142
RRIRWRPPRLPRPRPRPQISPRP	-0.22
RRIRWRPPRLPRPRPRPQKTPRP	0.119
RRIRWRPPRLPRPRPRPQKYPRP	-0.348

Sequence	shrunken log2 fold change
RRIRWRPPRLPRPRPRPQMDPRP	-0.12
RRIRWRPPRLPRPRPRPQNNPRP	-0.622
RRIRWRPPRLPRPRPRPQNTPRP	0.591
RRIRWRPPRLPRPRPRPQPQPRP	0.417
RRIRWRPPRLPRPRPRPQQSPRP	-0.0166
RRIRWRPPRLPRPRPRPQQVPRP	-0.00531
RRIRWRPPRLPRPRPRPQRYPRP	0.0066
RRIRWRPPRLPRPRPRPQTIPRP	0.106
RRIRWRPPRLPRPRPRPQTQPRP	0.516
RRIRWRPPRLPRPRPRPQVIPRP	-0.127
RRIRWRPPRLPRPRPRPQVQPRP	0.115
RRIRWRPPRLPRPRPRPQWCPRP	-0.0974
RRIRWRPPRLPRPRPRPRASPRP	0.852
RRIRWRPPRLPRPRPRPRDDPRP	0.341
RRIRWRPPRLPRPRPRPRDGPRP	1.12
RRIRWRPPRLPRPRPRPRDSPRP	-0.299
RRIRWRPPRLPRPRPRPREEPRP	0.55
RRIRWRPPRLPRPRPRPREPPRP	0.35
RRIRWRPPRLPRPRPRPRETPRP	0.936
RRIRWRPPRLPRPRPRPRGAPRP	0.586
RRIRWRPPRLPRPRPRPRGHPRP	0.404
RRIRWRPPRLPRPRPRPRGKPRP	0.227
RRIRWRPPRLPRPRPRPRGRPRP	0.704
RRIRWRPPRLPRPRPRPRHEPRP	-0.0681
RRIRWRPPRLPRPRPRPRHIPRP	-0.0148

Sequence	shrunken log2 fold change
RRIRWRPPRLPRPRPRPRIKPRP	0.0187
RRIRWRPPRLPRPRPRPRITPRP	0.00862
RRIRWRPPRLPRPRPRPRKSPRP	0.264
RRIRWRPPRLPRPRPRPRKTPRP	-0.0389
RRIRWRPPRLPRPRPRPRLMPRP	0.44
RRIRWRPPRLPRPRPRPRLNPRP	0.545
RRIRWRPPRLPRPRPRPRLRPRP	0.461
RRIRWRPPRLPRPRPRPRMPPRP	0.395
RRIRWRPPRLPRPRPRPRMVPRP	0.155
RRIRWRPPRLPRPRPRPRNHPRP	-0.141
RRIRWRPPRLPRPRPRPRNYPRP	-0.169
RRIRWRPPRLPRPRPRPRPKPRP	0.697
RRIRWRPPRLPRPRPRPRPPPRP	1.11
RRIRWRPPRLPRPRPRPRQAPRP	0.475
RRIRWRPPRLPRPRPRPRQEPRP	0.0591
RRIRWRPPRLPRPRPRPRRIPRP	0.109
RRIRWRPPRLPRPRPRPRSKPRP	0.118
RRIRWRPPRLPRPRPRPRSMPRP	0.0304
RRIRWRPPRLPRPRPRPRTIPRP	-0.0129
RRIRWRPPRLPRPRPRPRWTPRP	0.386
RRIRWRPPRLPRPRPRPSADPRP	0.115
RRIRWRPPRLPRPRPRPSAKPRP	0.833
RRIRWRPPRLPRPRPRPSDMPRP	-0.354
RRIRWRPPRLPRPRPRPSDSPRP	-0.0671
RRIRWRPPRLPRPRPRPSELPRP	0.0129

Sequence	shrunken log2 fold change
RRIRWRPPRLPRPRPRPSFDPRP	0.0774
RRIRWRPPRLPRPRPRPSFKPRP	-0.226
RRIRWRPPRLPRPRPRPSFSPRP	-0.286
RRIRWRPPRLPRPRPRPSFVPRP	-0.284
RRIRWRPPRLPRPRPRPSGWPRP	0.422
RRIRWRPPRLPRPRPRPSHPPRP	-0.0699
RRIRWRPPRLPRPRPRPSIHPRP	-0.319
RRIRWRPPRLPRPRPRPSKEPRP	-0.267
RRIRWRPPRLPRPRPRPSRWPRP	0.209
RRIRWRPPRLPRPRPRPSSAPRP	0.443
RRIRWRPPRLPRPRPRPSSHPRP	-0.248
RRIRWRPPRLPRPRPRPSTVPRP	-0.362
RRIRWRPPRLPRPRPRPSTWPRP	-0.148
RRIRWRPPRLPRPRPRPSVSPRP	0.104
RRIRWRPPRLPRPRPRPSVWPRP	0.218
RRIRWRPPRLPRPRPRPTAPPRP	0.481
RRIRWRPPRLPRPRPRPTCAPRP	0.868
RRIRWRPPRLPRPRPRPTCKPRP	-0.0078
RRIRWRPPRLPRPRPRPTDNPRP	-0.17
RRIRWRPPRLPRPRPRPTEEPRP	0.12
RRIRWRPPRLPRPRPRPTEHPRP	-0.093
RRIRWRPPRLPRPRPRPTEWPRP	0.327
RRIRWRPPRLPRPRPRPTFPPRP	0.197
RRIRWRPPRLPRPRPRPTIDPRP	-0.0862
RRIRWRPPRLPRPRPRPTIIPRP	-0.348

Sequence	shrunken log2 fold change
RRIRWRPPRLPRPRPRPTKMPRP	0.344
RRIRWRPPRLPRPRPRPTMSPRP	-0.065
RRIRWRPPRLPRPRPRPTMVPRP	-0.299
RRIRWRPPRLPRPRPRPTNHPRP	-0.245
RRIRWRPPRLPRPRPRPTNIPRP	-0.509
RRIRWRPPRLPRPRPRPTPKPRP	0.627
RRIRWRPPRLPRPRPRPTPPPRP	0.639
RRIRWRPPRLPRPRPRPTRTPRP	0.83
RRIRWRPPRLPRPRPRPTVMPRP	-0.374
RRIRWRPPRLPRPRPRPTYKPRP	-0.467
RRIRWRPPRLPRPRPRPTYLPRP	0.0592
RRIRWRPPRLPRPRPRPVDPPRP	0.158
RRIRWRPPRLPRPRPRPVEVPRP	-0.0825
RRIRWRPPRLPRPRPRPVFVPRP	-0.0738
RRIRWRPPRLPRPRPRPVKKPRP	0.29
RRIRWRPPRLPRPRPRPVKPPRP	0.539
RRIRWRPPRLPRPRPRPVNVPRP	-0.328
RRIRWRPPRLPRPRPRPVPRPRP	0.549
RRIRWRPPRLPRPRPRPVQEPRP	0.342
RRIRWRPPRLPRPRPRPVRHPRP	0.245
RRIRWRPPRLPRPRPRPVRNPRP	0.432
RRIRWRPPRLPRPRPRPVSNPRP	0.0778
RRIRWRPPRLPRPRPRPVTPPRP	0.666
RRIRWRPPRLPRPRPRPVTWPRP	-0.017
RRIRWRPPRLPRPRPRPVVSPRP	0.0155

Sequence	shrunken log2 fold change
RRIRWRPPRLPRPRPRPWCLPRP	-0.334
RRIRWRPPRLPRPRPRPWCRPRP	-0.000362
RRIRWRPPRLPRPRPRPWEEPRP	0.0688
RRIRWRPPRLPRPRPRPWERPRP	0.142
RRIRWRPPRLPRPRPRPWFNPRP	-0.248
RRIRWRPPRLPRPRPRPWFQPRP	-0.125
RRIRWRPPRLPRPRPRPWGMPRP	-0.246
RRIRWRPPRLPRPRPRPWGNPRP	0.149
RRIRWRPPRLPRPRPRPWGVPRP	0.132
RRIRWRPPRLPRPRPRPWHLPRP	-0.00636
RRIRWRPPRLPRPRPRPWLKPRP	0.0275
RRIRWRPPRLPRPRPRPWLMPRP	0.116
RRIRWRPPRLPRPRPRPWMLPRP	-0.0694
RRIRWRPPRLPRPRPRPWNWPRP	0.173
RRIRWRPPRLPRPRPRPWPKPRP	0.322
RRIRWRPPRLPRPRPRPWQQPRP	-0.01
RRIRWRPPRLPRPRPRPWSMPRP	-0.269
RRIRWRPPRLPRPRPRPWTEPRP	-0.301
RRIRWRPPRLPRPRPRPWWAPRP	-0.194
RRIRWRPPRLPRPRPRPYASPRP	-0.121
RRIRWRPPRLPRPRPRPYEHPRP	-0.12
RRIRWRPPRLPRPRPRPYFTPRP	-0.624
RRIRWRPPRLPRPRPRPYGDPRP	-0.113
RRIRWRPPRLPRPRPRPYHDPRP	-0.868
RRIRWRPPRLPRPRPRPYHNPRP	-0.296
